We go through one molecule from US20260176332A1 (BEIJING MDTK BIOTECHNOLOGY, published 2026).

The target in test [1] is T1, Elongated Peptide (SEQ ID NO:5: TDGVPAEGAFTEDFQGLR) (human).
T1 construct: Synthetic peptide coated on the ELISA plate
T1 peptide: TDGVPAEGAFTEDFQGLR
Kind of test: ELISA, peptide coated at 2 ug/ml, hybridoma supernatant diluted 100 times. As to the method: (§1) (1) Coating antigen: Specific Peptide and Elongated Peptide were respectively diluted with the coating solution, and coated at 2 μg/ml, 100 ul/well at 4° C. overnight; washed three times with the washing solution, 350 ul/well, and pat dried. (2) Blocking: 200 ul/well blocking solution, incubated at 37° C. for 2 h; washed three times with the washing solution, 350 ul/well, and pat dried. (3) The antibody (such as #25, #44, or #50) supernatant medium in Table 1 was diluted by 100 times with antibody diluent, 100 ul/well, and the blank was 100 ul antibody dilution, and they were incubated at 37° C. for 1 h; washed three times with the washing solution, 350 ul/well, and pat dried. (4) The secondary antibody was diluted with antibody diluent at a ratio of 1:10000, 100 ul/well, incubated at 37° C. for 1 h; washed three times with the washing solution, 350 ul/well, and pat dried. (5) Color development: 100 ul/well developer was added, incubating 10 min at room temperature. (6) Termination, reading: 100 ul/well stop solution was added, reading at OD 450 nm.

Test [2] concerns the target T2, Specific Peptide (SEQ ID NO:4: GVPAEGAFTEDFQGLR) (human).
T2 construct: Synthetic peptide coated on the ELISA plate; also called polypeptide number #1
T2 peptide: GVPAEGAFTEDFQGLR
The description is as above. The procedure:
as §1

Test [3] has as its target T3, GSDMD-CT expressed protein (human, UniProt P57764 276-484).
T3 construct: Recombinantly expressed; also called recombinant GSDMD-CT; C-terminus of GSDMD
T3 sequence: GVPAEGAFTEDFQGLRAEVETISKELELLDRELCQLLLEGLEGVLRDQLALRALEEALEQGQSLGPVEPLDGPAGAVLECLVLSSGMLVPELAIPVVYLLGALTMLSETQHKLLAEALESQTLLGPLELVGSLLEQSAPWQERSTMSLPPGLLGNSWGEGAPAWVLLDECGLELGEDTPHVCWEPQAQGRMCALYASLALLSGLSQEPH
Kind of test: competitive inhibition ELISA, coated GSDMD-CT vs soluble GSDMD-CT (FIG. 5). The procedure: The protein coating amount and antibody dilution concentration were preliminarily determined by checkerboard titration, and the experimental procedure was as follows:
(1) Coating antigen: The GSDMD-CT expressed protein was diluted with coating solution and coated at 2 ug/ml, 1 ug/ml, 0.5 ug/ml, 0.25 ug/ml, 100 ul/well overnight at 4° C.; washed three times with the washing solution, 350 ul/well, and pat dried. (2) Blocking: 200 ul/well blocking solution, incubated at 37° C. for 2 h; washed three times with the washing solution, 350 ul/well, and pat dried. (3) 1 ug/mL of #25, #44, and #50 antibodies was diluted 1,000 times with antibody diluent, then diluted with a 2-fold gradient, 100 μl/well, and blank was 100 μl of antibody diluent, and the antibodies were incubated at 37° C. for 1 h; washed three times with the washing solution, 350 ul/well, and pat dried. […] (6) Termination, reading: 100 ul/well stop solution was added, reading at OD 450 nm. (7) The dose curve of coating protein relative to antibody was determined. […] (10) 50 ul of sample solutions of different concentrations were added to 50 ul of diluted antibody, and then 100 ul of the mixture was added to the microplate reader plate and incubated for 1 h at 37° C.
In general terms: In an ELISA, binding on a coated surface is turned into a signal by an enzyme label.

B1: MD2106 #50 (antibody, IgG1, V domains shown)
VH: QVQLQQPGTELVKPGASVKLSCKASGYTFTNYWIHWVKQRPGQGLEWIGNTKPSNGDIHYNEKFRSKATLTVDKSSSTAYIQLSSLTSEDSAVYFCAVGYYWGQGTTLTVSS
VL: DIVMTQSPSSLTVTAGEKVTMSCKSSQSLLNSGNQKNYLTWYQQKPGQPPKMLIYWAYNRDSGVPDRFTGSGSGADFTLTISSVQAEDLAVYYCQNDYSYPLTFGAGTKLEL
notes: Mouse hybridoma monoclonal antibody; heavy chain type IgG1, light chain type kappa; Hybridoma supernatant diluted 100 times in the peptide ELISA; 1 ug/mL antibody, further diluted, in the GSDMD-CT ELISA; also called monoclonal antibody #50; MD2106-#5 #50
For B1, the binding result is on record as “no binding” in test [1], “binds” in test [2] and “binds” in test [3].
